The series has as its system ATP. Briefly: switch fluorescence ratio, 500 uM ATP over buffer (Cy3 cluster intensity, sum of 5 cycles each) (fold (ratio)); higher = stronger signal-on switching upon ATP binding; sequences stand for … in TCGTCGGCAGCGTCAGATGTGTATAAGAGACAGTTTTTTTTTTTTTTTTTTTTTTTTT…TC. The following applies: aptamer strand: ATP DNA aptamer (quencher-CACCTGGGGGAGTATTGCGGAGGAAGG + anchor), 100 nM annealed; ATP concentration: 500 uM. In a few lines: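 Exposure to 500 uM ATP lasted 15 min at 22 °C before imaging, and a selection-buffer image was taken beforehand, for Cy3-labelled switching-strand clusters on a modified Illumina MiSeq flow-cell annealed to 100 nM quencher-labelled ATP aptamer. Five buffer/ATP cycles were run with NaOH stripping and re-annealing between them. The fluorescence ratio per cluster is summed target-cycle over summed buffer-cycle Cy3 intensity, averaged per switch-domain sequence. Clusters outside 100-1000 RFU were excluded.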

± gives the standard deviation of the averaged measurements.

Turning to GGGAAACCAC, the switch fluorescence ratio stood at 1.04 ± 0.02. AATAGGTAG: the switch fluorescence ratio is 0.976 ± 0.014. The value for TCCTAGTCAT was 1.05 ± 0.036; that for TGTAAGTAGG was 1.04 ± 0.025.

As to ATGATTGCGT, the switch fluorescence ratio is 0.991 ± 0.018. The value for TTGCATGGGA was 0.992 ± 0.018; that for AACTCCAGGG was 1.35 ± 0.2. As to TATACGACAT, the switch fluorescence ratio is 1.16 ± 0.2. Under TGGGTGCGCG stands 1.014 ± 0.0063; under TTGTTTAAAA, 1.01 ± 0.049. Under AGGGGTCAGG stands 1.022 ± 0.0055; under TCTCGTACCT, 1.19 ± 0.12; under AGGTACAGTA, 1.017 ± 0.0017.

Consider CGAAAGCTTG, for which the switch fluorescence ratio was 1.05 ± 0.02. As to TTGCGTGGTG, the switch fluorescence ratio was 0.959 ± 0.077. The value for AAGTCGTTCG was 0.989 ± 0.016; that for AGAATGGGCA was 0.989 ± 0.029; that for TTCTGTTTTA was 1.05 ± 0.021. Take GAATGATGGG: the switch fluorescence ratio was 0.987 ± 0.024.

Regarding TAGGATAGAC, the switch fluorescence ratio was 1 ± 0.017. Under CCGGCATCGG stands 1.02 ± 0.059; under CGATTAGGGA, 1 ± 0.028; under AATTGCGGTA, 0.982 ± 0.05. As for CAGATGGGGA, the switch fluorescence ratio stood at 1.012 ± 0.0036.

As for CGCATGGCCT, the switch fluorescence ratio was 1.04 ± 0.072. Under CTGGGTCGGG stands 0.992 ± 0.0079; under ACTGTTAATA, 1.03 ± 0.023; under TTTTTTT, 0.9671 ± 0.0074.

On to GGATACTAGT, for which the switch fluorescence ratio was 1.04 ± 0.069. The value for TTTAAGGTAT was 0.957 ± 0.023. Under TTGAAGGAGA stands 1.01 ± 0.021; under CAACGGTTTC, 1.01 ± 0.019; under GGGGGACTGT, 0.938 ± 0.057. Under GCTGTGATA stands 0.976 ± 0.019; under TGTAGCCAGT, 1.05 ± 0.07. With AAATGGTAAT, the switch fluorescence ratio stood at 0.978 ± 0.036. The value for AGAGTGCCTG was 1.04 ± 0.058; that for TTGCTCCTGT was 0.9965 ± 0.0019. The value for TGGGCGGGGG was 1.03 ± 0.036; that for TTCGGGGCCA was 0.991 ± 0.013. Under TTGTGTGGGG stands 1.01 ± 0.034; under CAGACGGATT, 0.996 ± 0.0085; under TCACTGTCGC, 1.13 ± 0.07.

CGGGAATCCT: the switch fluorescence ratio was 1.11 ± 0.04. Under CAAAGGTCTC stands 0.986 ± 0.023; under TATAATACAA, 1.024 ± 0.0097. With TGTGGGTCAT, the switch fluorescence ratio turned out to be 0.9762 ± 0.0021. The value for TTAACGGTCT was 1.04 ± 0.027. In the case of TATCATCCGG, the switch fluorescence ratio worked out at 0.985 ± 0.032. The value for CACAAAAATT was 1.01 ± 0.024; that for TTTAGATGGA was 0.975 ± 0.021. As for AAAAGGTTAA, the switch fluorescence ratio amounted to 0.968 ± 0.019.

Consider TCGATGGGGA, for which the switch fluorescence ratio was determined as 1.02 ± 0.015.

On to TGGGTTAGCT, for which the switch fluorescence ratio was found to be 1.04 ± 0.039. Regarding AAGCTGGCGG, the switch fluorescence ratio is 0.9911 ± 0.0096. Under CCATAGAGAT stands 1.025 ± 0.0025. The value for CGGATATGGT was 1 ± 0.013; that for TTTGAGGAGG was 0.9876 ± 0.0046; that for ATGCGGTTTT was 0.986 ± 0.03. The value for TTGTTAATCG was 0.984 ± 0.011; that for GTCGTAGCGA was 1.24 ± 0.016; that for GGCGGCTACG was 1.003 ± 0.0035. As to TGGTTGCTGA, the switch fluorescence ratio was found to be 1 ± 0.033. On to AAGAGGGGAA, for which the switch fluorescence ratio was determined as 0.988 ± 0.062.

Turning to TCTCGCCGGG, the switch fluorescence ratio came out at 1.02 ± 0.031. In the case of AATTGTTTGT, the switch fluorescence ratio turned out to be 0.998 ± 0.016. The value for AAAGGTTAAA was 0.99 ± 0.018.
